Target: T1, full-length mouse RabGEF1 expressed as GAL-4 activation domain fusion protein (mouse, UniProt Q9JM13 1-491)
T1 construct: mature; Yeast two-hybrid prey in pACT2; also called Rabex-5
Assay: yeast two-hybrid, beta-galactosidase assays
Description: FIG. 2A-2C. Homology of RabGEF1 with members of a Rab5 binding protein family and direct interaction of RabGEF1 with Ras. (a) Alignment of amino acid sequences of mouse RabGEF1 (SEC ID NO:5) with the Vps9p domains of Vps9p (SEC ID NO:6), Rin1, (SEC ID NO:7), and JC265(SEC ID NO:8). The Vps9p domains of Vps9p, RIN1, and JC265 and the proposed GBH motifs I(SEC ID NO:9), II(SEC ID NO:10), and III(SEC ID NO:11) illustrated here represent those previously described. Identical amino acids or conservative substitutions present in three or four proteins are shaded. […] Different segments of the mouse RabGEF1 protein (shaded areas are Vps9p domains; black areas are putative GBH motifs) were expressed as GAL-4 activation domain fusion proteins, whereas the mouse H-Ras and yeast Ras2p proteins were expressed as DNA-binding fusion proteins. Positive interactions were assessed with both a qualitative colony-lift β-galactosidase filter assay using X-gal as the substrate (Colony color) and a quantitative liquid culture β-galactosidase assay using chlorophenol red-β-D-galactopyranoside as the substrate (Relative β-Gal units). […] The pulled-down RabGEF1 was detected using an anti-RabGEF1 antibody. […]
Yeast two-hybrid assay. […] The entire open reading frame and different segments of the open reading frame of the mouse RabGEF1 cDNA were separately subcloned, in frame, into the pACT2 vector.

T1 sequence (Q9JM13 whole entry, the tested form may be a part): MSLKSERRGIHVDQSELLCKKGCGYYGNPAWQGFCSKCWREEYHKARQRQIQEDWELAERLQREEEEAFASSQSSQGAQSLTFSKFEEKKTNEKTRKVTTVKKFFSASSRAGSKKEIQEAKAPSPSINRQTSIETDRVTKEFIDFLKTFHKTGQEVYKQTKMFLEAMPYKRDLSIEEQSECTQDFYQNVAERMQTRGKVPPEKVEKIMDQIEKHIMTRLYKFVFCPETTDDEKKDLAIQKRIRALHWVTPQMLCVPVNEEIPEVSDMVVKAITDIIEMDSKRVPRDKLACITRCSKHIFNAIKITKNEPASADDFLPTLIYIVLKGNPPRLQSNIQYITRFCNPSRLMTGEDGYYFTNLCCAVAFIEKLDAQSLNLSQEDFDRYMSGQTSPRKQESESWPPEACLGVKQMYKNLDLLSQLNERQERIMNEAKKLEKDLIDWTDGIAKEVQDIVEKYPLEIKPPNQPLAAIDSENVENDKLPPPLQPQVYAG

B1: yeast Ras2p expressed as DNA-binding fusion protein (other, UniProt P04386 1-147, looked up)
chain: MKLLSSIEQACDICRLKKLKCSKEKPKCAKCLKNNWECRYSPKTKRSPLTRAHLTEVESRLERLEQLFLLIFPREDLDMILKMDSLQDIKALLTGLFVQDNVNKDAVTDRLASVETDMPLTLRQHRISATSSSEESSNKGQRQLTVSMPLNKSNIREYKLVVVGGGGVGKSALTIQLTQSHFVDEYDPTIEDSYRKQVVIDDEVSILDILDTAGQEEYSAMREQYMRNGEGFLLVYSITSKSSLDELMTYYQQILRVKDTDYVPIVVVGNKSDLENEKQVSYQDGLNMAKQMNAPFLETSAKQAINVEEAFYTLARLVRDEGGKYNKTLTENDNSKQTSQDTKGSGANSVPRNSGGHRKMSNAANGKNVNSSTTVVNARNASIESKTGLAGNQATNGKTQTDRTNIDNSTGQAGQANAQSANTVNNRVNNNSKAGQVSNAKQARKQQAAPGGNTSEASKSGSGGSCIIS
B1: no binding.
